From US20100249184A1, “INDUCTION AND/OR MAINTENANCE OF TUMOR DORMANCY BY DISRUPTION OF UROKINASE PLASMINOGEN ACTIVATOR RECEPTOR-INTEGRIN INTERACTION” (MOUNT SINAI SCHOOL OF MEDICINE, priority 2007, published 2010)
“Also recorded” adds a separate entry of the source.

Biological target: T1, purified α3β1-integrin (Homo sapiens, UniProt P05556+P26006)
T1 construct: purchased Chemicon International (Temecula, Calif.)
Test: Solid phase dot-ELISA with α3β1-integrin
Assay type: binding
Conditions: α3β1-integrin 750 ng/ml, increasing concentrations of immobilized suPAR or peptide
Experimental: FIGS. 1A-H show the interaction between α5β1-integrin and immobilized uPAR and uPAR-derived synthetic peptides through solid-phase dot-ELISA. […] Bound integrin was detected with anti-α5 integrin antibody followed by goat anti-rabbit IgG (H+L) HRP conjugated secondary antibody and developed with enhanced chemiluminescence (“ECL”). FIG. 1B is a graph showing that binding of integrin to suPAR is saturable. SuPAR (1.5 μg) was immobilized on nitrocellulose membrane in triplicates, incubated with 0, 0.1, 0.5, 1, 2, and 4 μg/ml of α5β1-integrin and tested for integrin binding as in FIG. 1A. The dots were scanned with NIH Image. Mean and SE are shown. […] Peptides representing regions located in each of the three uPAR-domains were immobilized, incubated with α5β1-integrin, and analyzed as in FIG. 1A. Only peptide 240-248 binds α5β1-integrin. FIG. 1D is a graph showing that peptide 240-248 inhibits integrin binding to suPAR. The α5β1-integrin (750 ng/ml) was pre-incubated for 15 min at room temperature with 100 fold molar excess of 240-248 or 17-24 peptides, or with no peptide (Control) and the mixtures were applied to immobilized suPAR (1.5 μg), 2 dots per mixture, and developed as in FIG. 1A. […] Bound integrins were detected with the appropriate previously titrated antibodies followed by goat anti-rabbit IgG (H+L) HRP conjugated secondary antibody and detection with ECL. […]

T1 sequence (P26006 33-872 limits assumed): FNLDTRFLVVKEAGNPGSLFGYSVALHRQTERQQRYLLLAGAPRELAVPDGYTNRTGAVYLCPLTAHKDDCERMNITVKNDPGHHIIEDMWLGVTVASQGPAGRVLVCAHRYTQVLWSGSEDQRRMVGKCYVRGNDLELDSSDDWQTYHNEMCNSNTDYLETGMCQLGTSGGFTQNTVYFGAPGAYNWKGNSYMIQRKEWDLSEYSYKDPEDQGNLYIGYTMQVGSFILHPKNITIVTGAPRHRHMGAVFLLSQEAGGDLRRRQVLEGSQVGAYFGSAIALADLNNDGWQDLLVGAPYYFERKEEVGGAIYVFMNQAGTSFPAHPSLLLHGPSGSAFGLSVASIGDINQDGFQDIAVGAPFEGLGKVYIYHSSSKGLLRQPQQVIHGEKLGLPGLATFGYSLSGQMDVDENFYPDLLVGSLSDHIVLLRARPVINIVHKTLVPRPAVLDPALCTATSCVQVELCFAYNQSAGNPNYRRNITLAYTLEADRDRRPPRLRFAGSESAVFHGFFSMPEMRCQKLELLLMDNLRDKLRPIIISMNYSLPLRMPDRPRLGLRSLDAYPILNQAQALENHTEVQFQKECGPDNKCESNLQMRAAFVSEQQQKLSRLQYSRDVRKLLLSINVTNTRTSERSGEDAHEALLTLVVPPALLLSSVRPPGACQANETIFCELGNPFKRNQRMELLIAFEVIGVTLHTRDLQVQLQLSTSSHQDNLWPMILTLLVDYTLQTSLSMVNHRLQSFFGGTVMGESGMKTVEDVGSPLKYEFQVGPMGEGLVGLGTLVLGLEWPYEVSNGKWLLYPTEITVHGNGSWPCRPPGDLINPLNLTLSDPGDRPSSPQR
T1 sequence (P26006 873-1051 limits assumed): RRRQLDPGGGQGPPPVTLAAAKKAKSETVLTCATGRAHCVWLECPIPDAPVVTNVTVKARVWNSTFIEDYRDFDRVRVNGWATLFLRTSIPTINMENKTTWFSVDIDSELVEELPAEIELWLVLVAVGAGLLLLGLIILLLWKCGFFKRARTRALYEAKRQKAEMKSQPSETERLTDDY
T1 sequence (P05556 21-798): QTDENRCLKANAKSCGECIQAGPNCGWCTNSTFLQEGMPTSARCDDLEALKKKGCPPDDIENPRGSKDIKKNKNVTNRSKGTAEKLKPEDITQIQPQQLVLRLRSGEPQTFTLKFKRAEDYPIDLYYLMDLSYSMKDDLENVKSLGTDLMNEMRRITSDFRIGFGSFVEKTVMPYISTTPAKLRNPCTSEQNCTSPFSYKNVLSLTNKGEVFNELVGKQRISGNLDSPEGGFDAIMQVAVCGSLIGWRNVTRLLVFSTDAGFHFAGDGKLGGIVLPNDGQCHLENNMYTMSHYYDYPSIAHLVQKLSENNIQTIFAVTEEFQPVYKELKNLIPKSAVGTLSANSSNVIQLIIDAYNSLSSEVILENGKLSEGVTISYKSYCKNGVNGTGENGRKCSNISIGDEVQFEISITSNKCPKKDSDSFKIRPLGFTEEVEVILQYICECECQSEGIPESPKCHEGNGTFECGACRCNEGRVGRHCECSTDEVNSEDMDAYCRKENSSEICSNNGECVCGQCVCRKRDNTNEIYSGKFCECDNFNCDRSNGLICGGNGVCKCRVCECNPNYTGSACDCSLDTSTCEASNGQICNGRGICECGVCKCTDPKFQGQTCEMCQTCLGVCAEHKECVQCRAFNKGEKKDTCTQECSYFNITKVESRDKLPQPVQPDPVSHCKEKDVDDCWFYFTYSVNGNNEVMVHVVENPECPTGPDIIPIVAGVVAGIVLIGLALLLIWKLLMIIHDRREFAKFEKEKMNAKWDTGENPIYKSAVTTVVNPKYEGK

For “peptide 240-248: synthetic uPAR-derived peptide, domain III residues 240-248: GCATASMCQ (SEQ ID NO:9)”, the “α3β1-integrin binding compared to α5β1-integrin” value was “dots of much lesser intensity; also recorded: bound only weakly”.
